In data set [1] the target is soluble fibrin monomers (DESAFIB).
Data set [2] deals with stimulatory thirteen amino acid peptide P368.
For another data set, the target named is T1, lys-plasminogen, P00747.
T1 chain: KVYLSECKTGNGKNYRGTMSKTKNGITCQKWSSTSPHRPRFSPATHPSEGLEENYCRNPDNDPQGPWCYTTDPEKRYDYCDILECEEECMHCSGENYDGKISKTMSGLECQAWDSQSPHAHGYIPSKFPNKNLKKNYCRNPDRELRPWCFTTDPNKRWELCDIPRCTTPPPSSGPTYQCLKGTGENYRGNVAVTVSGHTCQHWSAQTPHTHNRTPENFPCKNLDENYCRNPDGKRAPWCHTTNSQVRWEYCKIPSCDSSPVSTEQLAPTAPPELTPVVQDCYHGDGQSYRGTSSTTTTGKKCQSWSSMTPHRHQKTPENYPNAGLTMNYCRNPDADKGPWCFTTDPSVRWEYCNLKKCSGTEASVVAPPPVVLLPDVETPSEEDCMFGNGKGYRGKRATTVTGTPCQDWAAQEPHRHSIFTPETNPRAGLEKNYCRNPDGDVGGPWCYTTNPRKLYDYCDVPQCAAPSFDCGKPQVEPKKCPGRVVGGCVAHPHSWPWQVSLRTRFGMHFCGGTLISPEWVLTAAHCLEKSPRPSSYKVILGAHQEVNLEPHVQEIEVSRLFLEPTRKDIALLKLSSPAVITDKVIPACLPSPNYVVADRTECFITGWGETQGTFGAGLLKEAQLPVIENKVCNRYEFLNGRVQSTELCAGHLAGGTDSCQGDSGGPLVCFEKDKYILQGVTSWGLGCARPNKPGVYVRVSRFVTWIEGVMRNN

This is an account of results in patent US6869778.

B1: t-PA/K429Y, two-chain form (protein)
chain 1: SYQVICRDEKTQMIYQQHQSWLRPVLRSNRVEYCWCNSGRAQCHSVPVKSCSEPRCFNGGTCQQALYFSDFVCQCPEGFAGKCCEIDTRATCYEDQGISYRGTWSTAESGAECTNWNSSALAQKPYSGRRPDAIRLGLGNHNYCRNPDRDSKPWCYVFKAGKYSSEFCSTPACSEGNSDCYFGNGSAYRGTHSLTESGASCLPWNSMILIGKVYTAQNPSAQALGLGKHNYCRNPDGDAKPWCHVLKNRRLTWEYCDVPSCSTCGLRQYSQPQFR
chain 2: IKGGLFADIASHPWQAAIFAKHRRSPGERFLCGGILISSCWILSAAHCFQERFPPHHLTVILGRTYRVVPGEEEQKFEVEKYIVHKEFDDDTYDNDIALLQLKSDSSRCAQESSVVRTVCLPPADLQLPDWTECELSGYGKHEALSPFYSERLYEAHVRLYPSSRCTSQHLLNRTVTDNMLCAGDTRSGGPQANLHDACQGDSGGPLVCLNDGRMTLVGIISWGLGCGQKDVPGVYTKVTNYLDWIRDNMRP
Regarding B1, in data set [1], the Fold stimulation of kcat/Km by fibrin is 230 fold, the “fibrin selectivity factor (specific activity in the presence of fibrin over that in the presence of fibrinogen)” value was 1.5 for two-chain t-PA/K429Y and the “stimulation of plasminogen activation by co-factor (indirect chromogenic assay)” value (“stimulation of plasminogen activation” for short) is reported as “strongly stimulated”. The “stimulation of plasminogen activation” value in data set [2] is recorded as “strongly stimulated”. Besides, the “stimulation of plasminogen activation” value with fibrinogen was “strongly stimulated”. In addition, in the data set with lys-plasminogen, P00747, the Kcat of plasminogen activation in the absence of a cofactor came to 0.18 s⁻¹, the Kcat of plasminogen activation in the presence of fibrin is 0.08 s⁻¹, the Kcat/Km of plasminogen activation in the absence of a cofactor turned out to be 13000 M⁻¹ s⁻¹ and the Kcat/Km of plasminogen activation in the presence of fibrin is 3e+06 M⁻¹ s⁻¹. Also, in the data set with lys-plasminogen, P00747, the Km of plasminogen activation in the absence of a cofactor amounted to 14 µM; the Km of plasminogen activation in the presence of fibrin was 0.03 µM; the “fold difference of activity toward plasminogen without co-factor, against two-chain t-PA” value is “differed by a factor of only 1.2”; the “percent of the activity of two-chain t-PA toward plasminogen in the presence of fibrin” value is “approximately 75% of the activity of two-chain t-PA”.

B2: t-PA/R275E,K429Y, single-chain form (protein)
chain: SYQVICRDEKTQMIYQQHQSWLRPVLRSNRVEYCWCNSGRAQCHSVPVKSCSEPRCFNGGTCQQALYFSDFVCQCPEGFAGKCCEIDTRATCYEDQGISYRGTWSTAESGAECTNWNSSALAQKPYSGRRPDAIRLGLGNHNYCRNPDRDSKPWCYVFKAGKYSSEFCSTPACSEGNSDCYFGNGSAYRGTHSLTESGASCLPWNSMILIGKVYTAQNPSAQALGLGKHNYCRNPDGDAKPWCHVLKNRRLTWEYCDVPSCSTCGLRQYSQPQFEIKGGLFADIASHPWQAAIFAKHRRSPGERFLCGGILISSCWILSAAHCFQERFPPHHLTVILGRTYRVVPGEEEQKFEVEKYIVHKEFDDDTYDNDIALLQLKSDSSRCAQESSVVRTVCLPPADLQLPDWTECELSGYGKHEALSPFYSERLYEAHVRLYPSSRCTSQHLLNRTVTDNMLCAGDTRSGGPQANLHDACQGDSGGPLVCLNDGRMTLVGIISWGLGCGQKDVPGVYTKVTNYLDWIRDNMRP
With B2, in data set [1], the Fold stimulation of kcat/Km by fibrin is 26000 fold; the “fibrin selectivity factor (specific activity in the presence of fibrin over that in the presence of fibrinogen)” value is given as “The fibrin selectivity factor for single chain t-PA/R275E,K429Y, however, is 146”; the “stimulation of plasminogen activation” value was “dramatically stimulated by fibrin monomers”. In addition, the “stimulation of plasminogen activation” value in data set [2] was “virtually nonresponsive”. Further, the “stimulation of plasminogen activation” value in the data set with fibrinogen is given as “virtually nonresponsive”. Besides, in the data set with lys-plasminogen, P00747, the Kcat of plasminogen activation in the absence of a cofactor stood at 0.00046 s⁻¹, the Kcat of plasminogen activation in the presence of fibrin amounted to 0.1 s⁻¹, the Kcat/Km of plasminogen activation in the absence of a cofactor worked out at 78 M⁻¹ s⁻¹ and the Kcat/Km of plasminogen activation in the presence of fibrin stood at 2e+06 M⁻¹ s⁻¹. In addition, in the data set with lys-plasminogen, P00747, the Km of plasminogen activation in the absence of a cofactor was determined as 5.9 µM; the Km of plasminogen activation in the presence of fibrin was 0.07 µM; the “fold reduction of activity toward plasminogen without co-factor, against single chain t-PA/R275E” value is given as “reduced by a factor of 17”; the “percent of the activity of single chain t-PA/R275E toward plasminogen in the presence of fibrin” value is given as “approximately 40% of the activity of single chain t-PA/R275E”.
